B1: Homeobox protein cut-like 2, residues 895 to 963; numbered along this chain, O14529 (parent)
chain: EVDTLELTRQVKEKLAKNGICQRIFGEKVLGLSQGSVSDMLSRPKPWSKLTQKGREPFIRMQLWLSDQL

Variants of: B1
Assay: abundance fitness (aPCA) (normalised: wild type 0, dead -1); higher = more abundant; growth selection in yeast, the domain comes from the species named
Conditions: Homo sapiens

Abundance fitness: each site, then its substitutions
F25: L -0.351, W -0.053, Y -0.779, P -1.05, S -0.721, E -0.904, T -0.449, I -0.711, A -0.827, M -0.462, R -0.568, C -0.707, V -0.646, K -0.62, G -0.9, N -0.803
E27: Q -0.007, G -0.072, F -0.173, K 0.001, D -0.162, R -0.019, A -0.063, S -0.006, Y -0.191, V -0.18, T -0.149, W -0.091, P -0.106, M -0.14, I -0.128, N -0.108
L32: A -0.279, P -0.286, C -0.136, H -0.231, W -0.043, M -0.032, N -0.305, K -0.169, R -0.179, T -0.211, V 0.132, Y -0.281, I -0.063, F -0.141, S -0.203, Q -0.304, E -0.227
I24: R -0.093, N -0.204, W 0.103, M -0.023, D -0.047, Y 0.097, C -0.243, F 0.143, L 0.033, E 0.278, P -0.934, S -0.084, K -0.084, A -0.117, H 0.007, G -0.347
S33: L -0.057, N -0.003, K 0.023, G -0.03, I -0.088, M 0.053, Q -0.027, T -0.036, P 0.03, C -0.035, F -0.009, A -0.042
K28: A -0.19, G -0.184, I -0.502, F -0.327, N -0.242, S -0.116, V -0.184, W -0.263, T -0.078, C -0.293, L -0.335, M -0.155, H -0.128, R -0.1, Y -0.296, Q 0.012, P -0.6, E -0.026
G31: D -0.132, P -0.378, V -0.514, A -0.226, N -0.121, C -0.257, T -0.274, M -0.347, L -0.314, H -0.059, Q -0.213, F -0.317, K -0.129, S -0.134, R -0.107, W -0.367, E -0.48, Y -0.449, I -0.712
L30: S -0.418, R -0.18, V -0.275, N -0.425, F -0.186, I -0.301, M -0.178, G -0.387, Q -0.423, C -0.234, A -0.447, W -0.21, K -0.178, Y -0.472, T -0.536, D -0.588
V29: M -0.104, W -0.113, R -0.121, Q -0.381, H -0.394, D -0.476, E -0.535, A -0.36, C -0.104, Y -0.145, P -0.345, S -0.325, L -0.108, F -0.174, T -0.258, K -0.129, N -0.551, G -0.173, I 0.124
G26: F -0.02, D -0.306, E -0.397, K -0.207, S -0.035, Y -0.169, P -0.219, H -0.525, R -0.295, M -0.153, C -0.02, V -0.263, W -0.591, Q -0.584, A 0.082, I -0.284, L -0.162, T -0.221
